Data from PMC13503762 (Nature Communications, 2026).

Biological target: SARS-CoV-2 M protein (purified, in LMNG/CHS detergent) (SARS-CoV-2, UniProt P0DTC5)
Assay: cryo-EM structure
Conditions: both partners purified

B1: short conformation Fab (scFab) (Fab, V domains shown)
VH: EVQLQQSGPELVKPGASMKISCKTSGYSFTGYTMNWVKQSHGKNLEWIGLINPYNGDTSYNQKFKGKATLTVDKSSSTAYMELLSLTSEDSAVYYCEVINTYWGQGTLVTVSA
VL: DIVMTQSPASLAVSLGQRATISCKASQSIDYDGDNYMNWYQQKPGQPPKLLIYTTSNLESGIPARFSGSGSGTDFTLNIHPVEEGDAATYYCQQNNEDPYTFGGGTKLEIK
notes: also called short conformation-selective Fab; Fab targeting M_(short)
binding result: binds
